{
  "source": "paper PMC6337131",
  "about": "“Kinetics and Predicted Structure of a Novel Xylose Reductase from Chaetomium thermophilum” (International Journal of Molecular Sciences, 2019)",
  "proteins": {"B1": {"name": "CtXR; xylose reductase from Chaetomium thermophilum (Thermochaetoides thermophila DSM 1495) (protein)", "chain": "MAPQIPNIKLSSGYDMPQVGFGLWKVDRSICADVVYNAIKIGYRLFDGACDYGNEVEAGQGIARAIKEGIVKREELFIVSKLWNTFHDGDKVEPIVRKQLADWGIDYFDLYLVHFPVALEYVDPSVRYPPGWFYDGEKEIRPSKATIQETWTAMESLVEKGLARSIGVSNFQAQLLYDLLRYAKIRPATLQIEHHPFLVQQELLNLAKAEGIAVTAYSSFGPQSFLEFNMKHAVQLTPLFEDETIKKIAAKYNRPASQVLLRWATQRGLAIIPKSTRPEIMKSNLESIEFDLSEEDIATISAFDRGLRFNQPTNYFPTEHLWIFG", "notes": "full-length ORF, codon optimized, pET28a, C-terminal His6 tag kept, E. coli BL21(DE3), IMAC and SEC; theoretical mass 39,244 Da; oligomer not determined (XRs commonly dimers)"}},
  "key": {"purified protein [1]": {"substrate": "NC(=O)C1=CN([C@@H]2O[C@H](COP(=O)(O)OP(=O)(O)OC[C@H]3O[C@@H](n4cnc5c(N)ncnc54)[C@H](OP(=O)(O)O)[C@@H]3O)[C@@H](O)[C@H]2O)C=CC1", "assay": "purified protein", "format": "biochemical, Thermochaetoides thermophila", "details": "0.5 M D-xylose, 50 mM bis-tris pH 6.5, 30 °C, varied: cofactor"}, "purified protein [2]": {"substrate": "NC(=O)C1=CN([C@@H]2O[C@H](COP(=O)(O)OP(=O)(O)OC[C@H]3O[C@@H](n4cnc5c(N)ncnc54)[C@H](O)[C@@H]3O)[C@@H](O)[C@H]2O)C=CC1", "assay": "purified protein", "format": "biochemical, Thermochaetoides thermophila", "details": "0.5 M D-xylose, 50 mM bis-tris pH 6.5, 30 °C, varied: cofactor"}},
  "data": [
    {"protein": "B1", "values": [
      {"measurement": "Km", "setting": "purified protein [1]", "value": "135 ± 44", "unit": "µM"},
      {"measurement": "kcat", "setting": "purified protein [1]", "value": "11.4 ± 1.1", "unit": "s⁻¹"},
      {"measurement": "kcat/Km", "setting": "purified protein [1]", "value": "85000 ± 28300", "unit": "M⁻¹ s⁻¹"},
      {"measurement": "Km", "setting": "purified protein [2]", "value": "119 ± 6", "unit": "µM"},
      {"measurement": "kcat", "setting": "purified protein [2]", "value": "3.2 ± 0.1", "unit": "s⁻¹"},
      {"measurement": "kcat/Km", "setting": "purified protein [2]", "value": "26700 ± 1670", "unit": "M⁻¹ s⁻¹"}
    ]}
  ]
}
